Laboratory results published in patent US20170165365A1 (SYMPHOGEN A S, published 2017).
Where a chain is given by its changes, count along the chain named. Each block holds one binder with its values, some of them ahead of it.

How the values were obtained:
cynomolgus HER3 antigen = target: T1, cynomolgus HER3 antigen (cynomolgus monkey, UniProt G7PIG5 20-643); assay: ELISA, coated cy HER3
T1 construct: In-house antigen; also called cynomolgus antigen
Description: (§1) Antibody-antigen binding was measured by ELISA with coated antigens. Human antigens were obtained from Sino Biologicals. All other antigens were produced in-house by transient expression in CHO or HEK293 cells. Chimeric and humanized antibodies, as well as an isotype control antibody, were incubated with the coated antigens at different concentrations. After wash, bound antibodies were detected by HRP-(horse radish peroxidase)-conjugated secondary antibodies.

[1] = target: T2, human HER2 antigen (Sino Biologicals) (human, UniProt P04626 23-652); assay: ELISA, coated hu HER2
T2 construct: Bought soluble antigen; also called human antigen
Description: as §1

[2] = target: T3, human HER3 antigen (Sino Biologicals) (human, UniProt P21860 20-643); assay: ELISA, coated hu HER3
T3 construct: Bought soluble antigen; also called human antigen
Description: as §1

human HER4 antigen = target: T4, human HER4 antigen (human, UniProt Q15303 26-649, limits assumed); assay: ELISA, coated hu HER4
T4 construct: Antigen coated for ELISA
T4 sequence (looked up): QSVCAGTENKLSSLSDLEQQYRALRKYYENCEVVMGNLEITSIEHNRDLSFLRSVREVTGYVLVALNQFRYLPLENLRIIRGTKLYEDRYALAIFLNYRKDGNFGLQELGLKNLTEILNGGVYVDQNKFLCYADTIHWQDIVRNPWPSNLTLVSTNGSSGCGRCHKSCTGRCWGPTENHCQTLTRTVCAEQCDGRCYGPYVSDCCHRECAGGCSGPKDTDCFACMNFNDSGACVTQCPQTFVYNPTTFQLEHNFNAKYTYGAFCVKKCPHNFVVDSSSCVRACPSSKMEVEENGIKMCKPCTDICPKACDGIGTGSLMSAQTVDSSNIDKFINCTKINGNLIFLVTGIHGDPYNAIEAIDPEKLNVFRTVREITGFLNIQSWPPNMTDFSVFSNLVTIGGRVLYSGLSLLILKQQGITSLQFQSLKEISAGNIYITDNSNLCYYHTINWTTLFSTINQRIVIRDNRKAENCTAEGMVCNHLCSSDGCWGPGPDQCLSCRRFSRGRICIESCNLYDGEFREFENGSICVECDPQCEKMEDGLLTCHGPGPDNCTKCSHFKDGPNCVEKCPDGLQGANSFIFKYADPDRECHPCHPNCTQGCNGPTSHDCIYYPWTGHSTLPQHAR
Description: as §1

mouse EGFR antigen = target: T5, mouse EGFR antigen (mouse, UniProt Q01279 25-647, limits assumed); assay: ELISA, coated mu EGFR
T5 construct: In-house antigen coated for ELISA; also called mouse antigen; murine EGFR
Description: as §1

mouse HER2 antigen = target: T6, mouse HER2 antigen (mouse, UniProt P70424 23-653, limits assumed); assay: ELISA, coated mu HER2
T6 construct: In-house antigen coated for ELISA; also called mouse antigen; murine HER2
Description: as §1

mouse HER3 antigen = target: T7, mouse HER3 antigen (mouse, UniProt Q61526 20-641, limits assumed); assay: ELISA, coated mu HER3
T7 construct: In-house antigen coated for ELISA; also called mouse antigen; murine HER3
Description: as §1

murine HER4 antigen = target: T8, murine HER4 antigen (mouse, UniProt Q61527 26-652, limits assumed); assay: ELISA, coated mu HER4
T8 construct: In-house antigen coated for ELISA; also called mouse HER4
T8 sequence (looked up): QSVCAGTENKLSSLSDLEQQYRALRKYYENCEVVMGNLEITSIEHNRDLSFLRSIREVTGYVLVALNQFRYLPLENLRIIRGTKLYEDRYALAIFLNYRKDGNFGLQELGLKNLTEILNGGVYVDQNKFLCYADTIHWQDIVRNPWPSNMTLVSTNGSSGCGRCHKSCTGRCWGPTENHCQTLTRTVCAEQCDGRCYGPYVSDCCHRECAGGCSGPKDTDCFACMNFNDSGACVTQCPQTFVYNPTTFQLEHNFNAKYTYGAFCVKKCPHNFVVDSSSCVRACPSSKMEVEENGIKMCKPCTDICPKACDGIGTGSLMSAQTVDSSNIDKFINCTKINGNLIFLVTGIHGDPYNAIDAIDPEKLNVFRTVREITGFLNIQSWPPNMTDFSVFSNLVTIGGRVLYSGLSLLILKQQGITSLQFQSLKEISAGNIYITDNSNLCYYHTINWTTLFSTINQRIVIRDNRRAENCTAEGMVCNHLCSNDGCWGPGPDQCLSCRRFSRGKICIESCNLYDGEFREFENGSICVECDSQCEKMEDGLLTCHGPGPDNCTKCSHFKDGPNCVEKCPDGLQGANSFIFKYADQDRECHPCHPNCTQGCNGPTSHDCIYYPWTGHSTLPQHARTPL
Description: as §1

cynomolgus EGFR antigen [3] = target: T9, cynomolgus EGFR antigen (cynomolgus monkey, UniProt A0A2K5WK39 25-645); assay: SPR (ProteOn XPR36), IgG captured by anti-human Fc, soluble monovalent antigen, 1:1 fit
T9 construct: In-house antigen; also called cynomolgus antigen
Description: (§2) Kinetic binding analysis of the purified humanized variants was performed on a ProteOn™ XPR36 biosensor (BioRad, USA) employing an IgG capture assay as described by Canziani et al. (Anal. Biochem. (2004) 325:301-307) that allows for measurement of antibody affinities of whole IgG molecules against soluble antigen under monovalent conditions. Briefly, approximately 5000 resonance units (RU) of a monoclonal mouse anti-human IgG Fc antibody (GE Healthcare, Denmark) was conjugated to a GLC chip surface (BioRad, USA) according to the manufacturer's instructions, followed by capture of individual antibodies of the invention or a negative control on the anti-Fc sensor surface. […] Next, 250 μl monovalent antigen (Sino Biologicals) was injected at a flow rate of 50 μl/min in serial threefold dilutions from 100 nM stock to generate response curves. The chip surface was regenerated between cycles by stripping the captured antibody/antigen complexes off the surface with a 10-second injection of 3 M MgCl₂ (GE Healthcare, Denmark) repeated three times. Finally, binding responses were fitted to a Langmuir 1:1 binding model for calculation of the on-rate (kon or ka), off-rate (koff or kd) and affinity (KD) constants using double referencing.

[4] = target: T10, human EGFR antigen (Sino Biologicals) (human, UniProt P00533 25-645); assay: as above
T10 construct: Bought soluble antigen; also called human antigen
Description: as §2

cynomolgus EGFR antigen [5] = target: T9, cynomolgus EGFR antigen; assay: ELISA, coated cy EGFR
Description: as §1

[6] = target: T10, human EGFR antigen (Sino Biologicals); assay: ELISA, coated hu EGFR
Description: as §1

[7] = target: cynomolgus HER2 antigen (cynomolgus monkey); assay: SPR (ProteOn XPR36), IgG captured by anti-human Fc, soluble monovalent antigen, 1:1 fit
[8] = target: T2, human HER2 antigen (Sino Biologicals); assay: as above
Description: as §2

T6 sequence (P70424 23-653 limits assumed): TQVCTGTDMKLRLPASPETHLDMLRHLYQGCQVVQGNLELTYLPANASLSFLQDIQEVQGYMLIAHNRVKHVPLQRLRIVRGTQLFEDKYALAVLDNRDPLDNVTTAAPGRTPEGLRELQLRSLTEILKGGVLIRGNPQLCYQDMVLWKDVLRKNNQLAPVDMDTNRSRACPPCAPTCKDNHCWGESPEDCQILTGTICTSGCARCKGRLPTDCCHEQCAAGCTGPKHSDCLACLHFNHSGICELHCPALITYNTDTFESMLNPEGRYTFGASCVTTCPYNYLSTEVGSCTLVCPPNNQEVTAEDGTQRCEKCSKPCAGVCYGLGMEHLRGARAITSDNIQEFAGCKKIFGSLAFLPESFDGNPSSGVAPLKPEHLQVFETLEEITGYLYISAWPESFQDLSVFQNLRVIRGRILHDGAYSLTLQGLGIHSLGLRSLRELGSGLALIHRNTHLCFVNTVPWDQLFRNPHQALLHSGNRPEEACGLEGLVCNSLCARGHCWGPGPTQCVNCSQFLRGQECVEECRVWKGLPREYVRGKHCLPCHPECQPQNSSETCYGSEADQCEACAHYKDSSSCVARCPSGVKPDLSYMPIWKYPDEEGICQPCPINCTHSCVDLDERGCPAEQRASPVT
T1 sequence (G7PIG5 entry or part of it): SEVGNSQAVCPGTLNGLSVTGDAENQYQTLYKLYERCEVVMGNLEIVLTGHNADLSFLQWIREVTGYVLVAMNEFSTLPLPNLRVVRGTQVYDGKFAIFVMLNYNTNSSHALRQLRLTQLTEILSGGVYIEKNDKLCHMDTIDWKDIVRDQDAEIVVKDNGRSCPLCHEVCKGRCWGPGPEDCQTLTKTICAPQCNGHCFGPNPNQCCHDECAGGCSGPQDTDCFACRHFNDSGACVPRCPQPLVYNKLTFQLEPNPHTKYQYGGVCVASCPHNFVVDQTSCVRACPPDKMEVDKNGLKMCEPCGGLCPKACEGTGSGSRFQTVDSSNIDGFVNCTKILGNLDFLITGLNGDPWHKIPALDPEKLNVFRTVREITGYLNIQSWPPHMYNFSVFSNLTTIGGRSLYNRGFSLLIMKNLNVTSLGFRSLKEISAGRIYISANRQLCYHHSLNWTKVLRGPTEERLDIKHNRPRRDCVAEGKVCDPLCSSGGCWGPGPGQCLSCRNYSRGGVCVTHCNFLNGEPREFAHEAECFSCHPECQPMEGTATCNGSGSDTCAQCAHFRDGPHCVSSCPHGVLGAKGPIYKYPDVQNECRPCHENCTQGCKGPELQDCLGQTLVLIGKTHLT
T7 sequence (Q61526 20-641 limits assumed): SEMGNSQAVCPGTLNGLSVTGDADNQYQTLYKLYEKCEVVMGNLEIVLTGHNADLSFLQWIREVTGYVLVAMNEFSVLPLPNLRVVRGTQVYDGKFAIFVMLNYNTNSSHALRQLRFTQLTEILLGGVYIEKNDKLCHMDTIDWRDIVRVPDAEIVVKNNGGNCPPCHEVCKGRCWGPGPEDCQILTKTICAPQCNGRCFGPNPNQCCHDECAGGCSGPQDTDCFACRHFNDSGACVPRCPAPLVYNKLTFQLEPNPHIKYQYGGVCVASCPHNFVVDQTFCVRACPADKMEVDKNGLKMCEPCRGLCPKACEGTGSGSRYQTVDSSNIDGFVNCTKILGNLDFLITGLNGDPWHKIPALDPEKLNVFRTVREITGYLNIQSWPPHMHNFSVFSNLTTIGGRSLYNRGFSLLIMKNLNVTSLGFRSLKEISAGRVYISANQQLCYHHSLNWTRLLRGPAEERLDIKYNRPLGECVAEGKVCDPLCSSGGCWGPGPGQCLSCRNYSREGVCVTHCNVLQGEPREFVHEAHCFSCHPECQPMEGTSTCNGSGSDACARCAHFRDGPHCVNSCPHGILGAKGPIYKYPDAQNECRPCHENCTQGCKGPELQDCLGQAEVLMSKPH

B1: humanized anti-EGFR antibody 10560 (antibody, V domains shown)
VH: QVQLVQSGAEVKKPGASVKLSCKASGYTFTSYWMQWVRQAPGQGLEWIGNINPSNGGTSFNEEFKSRATMTRDTSTSTVYMELSSLRSEDTAVYYCARDGGLYDGYYFDFWGQGTLVTVSS
VL: AIQLTQSPSSLSASVGDRVTITCKASQDVDTAVAWYQQKPGKAPKLLIYWASTRHTGVPSRFSGSGSGTDFTLTVSSLQPEDFATYFCQQYSSYPLTFGGGTKVEIK
notes: also called 10550 (misprint in some paragraphs)
binding result (cynomolgus HER3 antigen): no binding (tested: 40 nM) | binding result [1]: no binding (tested: 40 nM) | binding result [2]: no binding (tested: 40 nM) | binding result (human HER4 antigen): no binding (tested: 40 nM) | binding result (mouse EGFR antigen): no binding (tested: 40 nM) | binding result (mouse HER2 antigen): no binding (tested: 40 nM) | binding result (mouse HER3 antigen): no binding (tested: 40 nM) | binding result (murine HER4 antigen): no binding (tested: 40 nM) | Kd (cynomolgus EGFR antigen [3]): 3.1 nM

B4: humanized anti-EGFR antibody 11294 (antibody, V domains shown)
VH: EVQLVESGGGLVQPGGSLRLSCAASGFAFSYSDMSWVRQAPGKRLEWVSYMSSAGDVTFYSDTVKGRFTISRDNAKNSLYLQVNSLRAEDTAVYYCVRHRDVAIDYWGQGTTVTVSS
VL: DVVMTQSPLSLPVTLGQPASISCRSSQSLVHSNLNTYLHWYQQRPGQSPRLLIYKVSNRFSGVPDRFSGSGSGTDFTLKISRVEAEDVGVYFCSQSTHVPTFGGGTKVEIK
binding result (cynomolgus HER3 antigen): no binding (tested: 40 nM) | binding result [1]: no binding (tested: 40 nM) | binding result [2]: no binding (tested: 40 nM) | binding result (human HER4 antigen): no binding (tested: 40 nM) | binding result (mouse EGFR antigen): no binding (tested: 40 nM) | binding result (mouse HER2 antigen): no binding (tested: 40 nM) | binding result (mouse HER3 antigen): no binding (tested: 40 nM) | binding result (murine HER4 antigen): no binding (tested: 40 nM) | Kd (cynomolgus EGFR antigen [3]): 0.56 nM

B6: chimeric anti-HER2 antibody 4517 (antibody, V domains shown)
VH: EVQLVESGGDLVKPGGSLKLSCAASGFTFSSYGMSWVRLTPDKRLEWVATISGGGSYTYYPDSVKGRFTISRDIAKSTLYLQMSSLKSEDTAVYYCARKGNYGNYGKLAYWGQGTSVTVS
VL: DIQMTQSPASLSVSVGETVTITCRASENIYSNLAWYQQEQGKSPQLLVYAATNLADGVPSRFSGSGSGTQYSLKINSLQSEDFGSYYCQHFWGTPWTFGGGTKLEIKR
notes: light chain entry is full length
binding result (cynomolgus EGFR antigen [5]): no binding (tested: 40 nM) | binding result (cynomolgus HER3 antigen): no binding (tested: 40 nM) | binding result [6]: no binding (tested: 40 nM) | binding result [2]: no binding (tested: 40 nM) | binding result (human HER4 antigen): no binding (tested: 40 nM) | binding result (mouse EGFR antigen): no binding (tested: 40 nM) | binding result (mouse HER2 antigen): no binding (tested: 40 nM) | binding result (mouse HER3 antigen): no binding (tested: 40 nM) | binding result (murine HER4 antigen): no binding (tested: 40 nM) | Kd [7]: 3.7 nM | koff [7]: 0.00086 s⁻¹ | kon [7]: 230000 M⁻¹ s⁻¹ | Kd [8]: 1.1 nM | koff [8]: 0.00029 s⁻¹ | kon [8]: 260000 M⁻¹ s⁻¹

More lines, in order of falling Kd (cynomolgus EGFR antigen [3]), values ahead:

binding result (cynomolgus HER3 antigen): no binding (tested: 40 nM) | binding result [1]: no binding (tested: 40 nM) | binding result [2]: no binding (tested: 40 nM) | binding result (human HER4 antigen): no binding (tested: 40 nM) | binding result (mouse EGFR antigen): no binding (tested: 40 nM) | binding result (mouse HER2 antigen): no binding (tested: 40 nM) | binding result (mouse HER3 antigen): no binding (tested: 40 nM) | binding result (murine HER4 antigen): no binding (tested: 40 nM) | Kd [4]: 0.35 nM | koff [4]: 0.00058 s⁻¹ | kon [4]: 1.7e+06 M⁻¹ s⁻¹ | Kd (cynomolgus EGFR antigen [3]): 28 nM | koff (cynomolgus EGFR antigen [3]): 0.016 s⁻¹ | kon (cynomolgus EGFR antigen [3]): 580000 M⁻¹ s⁻¹
B5: chimeric anti-EGFR antibody 1565 (antibody, V domains shown)
VH: EVQLQQSGTELVKPGASVILSCKASGYTFTSYWMQWVKQRPGQGLEWIGNINPSNGGTSFNEEFKSRATLTVDKSSSTAYMQLSSLTSEDSAVYYCARDGGLYDGYYFDFWGQGTTLTVS
VL: NIVMTQSHKFMSTLIGARVSITCKASQDVDTAVAWYQQKPGQSPKLLIYWASTRHTGVPDRFTGSGSGTDFSLTVSNVQSEDLTDYFCQQYSSYPLTFGAGTKLELKR
notes: as for B6

binding result (cynomolgus HER3 antigen): no binding (tested: 40 nM) | binding result [1]: no binding (tested: 40 nM) | binding result [2]: no binding (tested: 40 nM) | binding result (human HER4 antigen): no binding (tested: 40 nM) | binding result (mouse EGFR antigen): no binding (tested: 40 nM) | binding result (mouse HER2 antigen): no binding (tested: 40 nM) | binding result (mouse HER3 antigen): no binding (tested: 40 nM) | binding result (murine HER4 antigen): no binding (tested: 40 nM) | Kd (cynomolgus EGFR antigen [3]): 1.2 nM
B2: humanized anti-EGFR antibody 11302 (antibody, V domains shown)
VH: B1 VH with G56L
VL: B1 VL

binding result (cynomolgus HER3 antigen): no binding (tested: 40 nM) | binding result [1]: no binding (tested: 40 nM) | binding result [2]: no binding (tested: 40 nM) | binding result (human HER4 antigen): no binding (tested: 40 nM) | binding result (mouse EGFR antigen): no binding (tested: 40 nM) | binding result (mouse HER2 antigen): no binding (tested: 40 nM) | binding result (mouse HER3 antigen): no binding (tested: 40 nM) | binding result (murine HER4 antigen): no binding (tested: 40 nM) | Kd (cynomolgus EGFR antigen [3]): 0.35 nM
B3: humanized anti-EGFR antibody 10292 (antibody, V domains shown)
VH: B4 VH with I104M
VL: DIQMTQSPSSLSASVGDRATITCRSSQSLVHSNGNTYLHWYQQKPGKAPKLLIYKVSNRFSGVPSRFSGSGSGTDFTLTISSLQPEDFATYFCSQSTHVPTFGGGTKVEIK
